The source of these data is the emibetuzumab library of Makowski et al. (2022).

First the molecules themselves.
B1: VH:VL chains; a variant is named by its letters at X, in order (parent)
chain 1: QVQLVQSGAEVKKPGASVKVSCKASGYTFTDYXMHWVRQAPGQGLEWMGXVNPNXXXTTYNQKFEGRVTMTTDTSTSTAYMELRSLRSDDTAVYYCARXNXLDXWGQGTTVTVSS
chain 2: DIQMTQSPSSLSASVGDRVTITCSVSSSVSSIYLHWYQQKPGKAPKLLIYSTSNLASGVPSRFSGSGSGTDFTLTISSLQPEDFATYYCQVYSGYPLTFGGGTKVEIK

Variants of B1 are the subject of this data set. As to the kind of experiment: yeast display scFab, FACS + sequencing. In a few lines:
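Heavy-chain CDR mutant scFab yeast surface library, FACS-sorted after labelling with biotinylated ovalbumin (260 μg/mL in PBSB, 3 h, room temperature) or soluble membrane proteins (130 μg/mL, 20 min on ice), plus anti-Myc. Gates collected the top 25% and bottom 10% of binders, and samples from two replicates were deep sequenced. Non-specific binding call: a sequence was positive if found in ≥3 of 4 positive samples (membrane protein and ovalbumin pooled) and no negatives, and negative by the converse rule.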
Take DREEGAVY: the non-specific binding call is listed as “no binding”.

As for DREEGAVV, the non-specific binding call is on record as “no binding”.

With DGTKSYGV, the non-specific binding call is “binds”.

SETKGDVY: the non-specific binding call is recorded as “no binding”.

With FKTKSDAV, the non-specific binding call is recorded as “no binding”.

Regarding FKTEGFVS, the non-specific binding call was “binds”.

Take YRGRGASF: the non-specific binding call is “binds”.

YRGKGAWA: the non-specific binding call is “binds”.

On to YRRKGALV, for which the non-specific binding call is “binds”.

VREGDYLS: the non-specific binding call is given as “binds”.

In the case of FKKGSSAA, the non-specific binding call was “binds”.

In the case of FTGTSAAF, the non-specific binding call is recorded as “binds”.

As for YKAKGAAA, the non-specific binding call is reported as “binds”.

Regarding AARADSSA, the non-specific binding call is reported as “no binding”.

On to STAESSSF, for which the non-specific binding call is given as “no binding”.

As for YRTRGAGV, the non-specific binding call is on record as “binds”.

For DAGKGSVD, the non-specific binding call is “no binding”.

Take SRGRDAWA: the non-specific binding call is recorded as “binds”.

As to VATGDFGV, the non-specific binding call is on record as “no binding”.

DREEGVGV: the non-specific binding call is listed as “no binding”.

Regarding VTTRADVY, the non-specific binding call is “no binding”.

On to VGGTSSAD, for which the non-specific binding call is reported as “no binding”.

For SEGRGDGA, the non-specific binding call is reported as “no binding”.

For the variant YAGGDDAV, the non-specific binding call is “no binding”.

For DATGGSSS, the non-specific binding call is recorded as “no binding”.

On to DATGGSSY, for which the non-specific binding call is on record as “no binding”.

With DATGGSSV, the non-specific binding call is on record as “no binding”.

Take SEARSSWS: the non-specific binding call is given as “no binding”.

DAGAADVV: the non-specific binding call is “no binding”.

Regarding VKGRGAWA, the non-specific binding call was “binds”.

In the case of SREAADWA, the non-specific binding call is given as “no binding”.

Consider YAGGDDSA, for which the non-specific binding call is listed as “no binding”.

VEGTSDGD: the non-specific binding call is “no binding”.

Consider YKRGASLA, for which the non-specific binding call is given as “binds”.

Regarding YKRGGAVV, the non-specific binding call is listed as “binds”.

Take DETGGSSD: the non-specific binding call is “no binding”.

For the variant YRKRGSSA, the non-specific binding call is “binds”.

For YRRESAGF, the non-specific binding call was “binds”.

With AKTRDFVA, the non-specific binding call is reported as “binds”.

On to DETRSAGA, for which the non-specific binding call is “no binding”.

Turning to DTKAAAGD, the non-specific binding call is listed as “no binding”.

With DEGGDDAA, the non-specific binding call is on record as “no binding”.

Take STATADVA: the non-specific binding call is reported as “no binding”.

Regarding YKAKGALD, the non-specific binding call is “binds”.

As for VEGTSDVV, the non-specific binding call is given as “no binding”.

Turning to YTARDVGV, the non-specific binding call is given as “binds”.

Consider VRRGSAGS, for which the non-specific binding call is listed as “binds”.

In the case of YRRGGAWD, the non-specific binding call is “binds”.

As for VRRGSFGA, the non-specific binding call was “binds”.

Take YRGKGVGV: the non-specific binding call is “binds”.

Consider VKGRADWY, for which the non-specific binding call is “no binding”.

For YRKGSSGF, the non-specific binding call is “binds”.

With YRKGGSGY, the non-specific binding call is reported as “binds”.

On to VTGEDDVV, for which the non-specific binding call is “no binding”.

In the case of VKTGGSWV, the non-specific binding call is given as “no binding”.

ATAGSAAV: the non-specific binding call is “no binding”.

Turning to YRAETDGV, the non-specific binding call is on record as “no binding”.

On to VEKEGDAD, for which the non-specific binding call is recorded as “no binding”.

On to YRGRSAGA, for which the non-specific binding call is “binds”.

Consider YRGRSAAY, for which the non-specific binding call is “binds”.

As to YRTRGALS, the non-specific binding call was “binds”.

FRTGDDLV: the non-specific binding call is reported as “no binding”.

For the variant YTEKGVGV, the non-specific binding call is recorded as “binds”.

As for AGGGNDWV, the non-specific binding call is “no binding”.

Turning to FRTRDAAA, the non-specific binding call is listed as “binds”.

On to DTKAASSA, for which the non-specific binding call is listed as “no binding”.

As to VKGKGAAF, the non-specific binding call is reported as “binds”.

YKGRGFWA: the non-specific binding call is on record as “binds”.

On to YRGRGVLF, for which the non-specific binding call was “binds”.

Consider VRRGSSVV, for which the non-specific binding call is given as “binds”.

On to YTEGDFAV, for which the non-specific binding call is given as “no binding”.

With AKRGSAAV, the non-specific binding call is recorded as “binds”.

Take YRRRGSAF: the non-specific binding call is reported as “binds”.

As for DAEGGSLD, the non-specific binding call was “no binding”.

In the case of DATRGAGY, the non-specific binding call is “no binding”.

Regarding FRGRGSVV, the non-specific binding call is given as “binds”.

As to YAEESDVA, the non-specific binding call is recorded as “no binding”.

As to YERRDVLY, the non-specific binding call is given as “binds”.

Turning to YRAGGAGY, the non-specific binding call is recorded as “binds”.

For the variant YKTRGSAD, the non-specific binding call is listed as “binds”.

For the variant YTGGDSVD, the non-specific binding call is “no binding”.

For DRAGDDSA, the non-specific binding call is listed as “no binding”.

As to FRGEGSGV, the non-specific binding call is “binds”.

Take VRGKAFVV: the non-specific binding call was “binds”.

In the case of YRRGGSVS, the non-specific binding call is on record as “binds”.

For YAAGGFAY, the non-specific binding call is “binds”.

As to YRGRGALF, the non-specific binding call is listed as “binds”.

For FRGESAGV, the non-specific binding call was “binds”.

As to VRTRSSGV, the non-specific binding call is “binds”.

Turning to DETKGDWD, the non-specific binding call is on record as “no binding”.

Take YRRRGFGS: the non-specific binding call is “binds”.

On to YEGGGYSF, for which the non-specific binding call is recorded as “no binding”.

Take YRTRSAGD: the non-specific binding call is on record as “binds”.

On to VTGGDSLV, for which the non-specific binding call is “no binding”.

Take DARGGSLD: the non-specific binding call was “no binding”.

As for DGERTAGV, the non-specific binding call is “no binding”.

As to AKTKSDVA, the non-specific binding call is “no binding”.

DGGTNDGA: the non-specific binding call is listed as “no binding”.

In the case of VRKGGSLD, the non-specific binding call is “binds”.

YRRRGSGV: the non-specific binding call is on record as “binds”.

Take AERRDDGA: the non-specific binding call is reported as “no binding”.

In the case of VRERSSVD, the non-specific binding call is “binds”.

On to YRGGDYGA, for which the non-specific binding call is on record as “no binding”.

Regarding YGETGDSV, the non-specific binding call was “no binding”.

Turning to FKEAGAVY, the non-specific binding call was “binds”.

Regarding YTTGGSSA, the non-specific binding call was “no binding”.

For SEEGSDAS, the non-specific binding call was “no binding”.

For VKEGGDVA, the non-specific binding call was “no binding”.

VAGGDDVF: the non-specific binding call is reported as “no binding”.

Take VRAGDDVD: the non-specific binding call is on record as “no binding”.

As to YKETGYAV, the non-specific binding call is listed as “binds”.

Turning to FAAGGSGD, the non-specific binding call was “binds”.

For YRRESSGY, the non-specific binding call is reported as “binds”.

In the case of YRGRGVGF, the non-specific binding call is “binds”.

For YRGRGVGA, the non-specific binding call was “binds”.

Take VEGRGAVY: the non-specific binding call is given as “no binding”.

Regarding DGGKNDGV, the non-specific binding call is listed as “no binding”.

As for DGGKNDGS, the non-specific binding call is listed as “no binding”.
